In PMC4005645, “Molecular basis for the wide range of affinity found in Csr/Rsm protein–RNA recognition”:

Assays:
RsmE [1] = target: T1, RsmE (Pseudomonas fluorescens CHA0, UniProt P0DPC3 1-64); test: ITC; second RNA on dimer, two-site fit; ITC: 300 mM NaCl, 50 mM potassium phosphate pH 8.0, 298 K; NMR: 30 mM NaCl, 50 mM potassium phosphate pH 7.2, 313 K; settings: protein: recombinant; tags: C-terminal His tag; chain copies: 2; hairpin
T1 sequence: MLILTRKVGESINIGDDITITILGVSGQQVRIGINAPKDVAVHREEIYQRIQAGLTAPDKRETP

RsmE [2] = target: T1, RsmE; test: ITC; first RNA on dimer, two-site fit; ITC: 300 mM NaCl, 50 mM potassium phosphate pH 8.0, 298 K; NMR: 30 mM NaCl, 50 mM potassium phosphate pH 7.2, 313 K; settings: protein: recombinant; tags: C-terminal His tag; chain copies: 2; hairpin
RsmE [3] = target: T1, RsmE; test: NMR structure; slow exchange; ITC: 300 mM NaCl, 50 mM potassium phosphate pH 8.0, 298 K; NMR: 30 mM NaCl, 50 mM potassium phosphate pH 7.2, 313 K; settings: protein: recombinant; tags: C-terminal His tag; chain copies: 2; hairpin
RsmE [4] = target: T1, RsmE; test: ITC; two-site fit, high affinity, similar to SL2; values in figure; ITC: 300 mM NaCl, 50 mM potassium phosphate pH 8.0, 298 K; NMR: 30 mM NaCl, 50 mM potassium phosphate pH 7.2, 313 K; settings: protein: recombinant; tags: C-terminal His tag; chain copies: 2; hairpin
RsmE [5] = target: T1, RsmE; test: ITC; intermediate affinity; value in figure; ITC: 300 mM NaCl, 50 mM potassium phosphate pH 8.0, 298 K; NMR: 30 mM NaCl, 50 mM potassium phosphate pH 7.2, 313 K; settings: protein: recombinant; tags: C-terminal His tag; chain copies: 2

Binder GGGCCAUCAAGGACGAUGGUCC (structured_RNA) [RsmZ SL2] has a Kd (RsmE [1]) of 185 ± 3 nM and a Kd (RsmE [2]) of 16 ± 3 nM.

GGGUGUCGACGGAUAGACACCC (structured_RNA) [RsmZ SL1]: binds (RsmE [3]).

GGGAUCGCAGGAAGCGAUCCC (structured_RNA) [RsmZ SL3]: binds (RsmE [3]).

GGGUCAUCAGGACGAUGACCC (structured_RNA) [RsmZ SL4]: binds (RsmE [3]).

GGGCUUCACGGAUGAAGCCC (structured_RNA) [20nt-RBS (hcnA GGA#5)]: binds (RsmE [4]).

GAGCAUGGACGGCGAGACGCCGGGUA (structured_RNA) [hcnA-GGA#3]: binds (RsmE [5]).
